The data set can be described thus: self-splicing fitness, log relative to wild type (ln ratio); higher = more splicing; Tetrahymena group I intron in knt gene, E. coli kanamycin selection, DiMSum; sequences stand for … in CUCUCU…GGAGGGAAAAGUUAUCAGGCAUGCACCUGGUAGCUAGUCUUUAAACCAAUAGAUUGCAUCGGUUUAAAAGGCAAGACCGUCAAAUUGCGGGAAAGGGGUCAACAGCCGUUCAGUACCAAGUCUCAGGGGAAACUUUGAGAUGGCCUUGCAAAGGGUAUGGUAAUAAGCUGACGGACAUGGUCCUAACCACGCAGCCAAGUCCUAAGUCAACAGAUCUUCUGUUGAUAUGGAUGCAGUUCACAGACUAAAUGUCGGUCGGGGAAGAUGUAUUCUUCUCAUAAGAUAUAGUCGGACCUCUCCUUAAUGGGAGCUAGCGGAUGAAGUGAUGCAACACUGGAGCCGCUGGGAACUAAUUUGUAUGCGAAAGUAUAUUGAUUAGUUUUGGAGUACUCGUGGUCG
The method, boiled down:
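Fitness was computed with DiMSum as the error-weighted combination of replicate fold changes, kanamycin versus none, each normalised to wild type. The library randomised all eight intron nucleotides of the P1ex region, with the intron placed in the knt kanamycin-resistance gene on pET-22b(+) in E. coli BL21(DE3). Six replicate transformations were grown overnight at 37°C or 30°C on LB agar with or without 25 μg/mL kanamycin, plus 100 μg/mL carbenicillin, 50 μM IPTG and 0.2% rhamnose. Pooled colonies were amplicon-sequenced on an Illumina HiSeq 2500.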

± gives the uncertainty stated by the source.

On to UGAGAGCAAUAUUACGACGG, for which the “self-splicing fitness (ln)” value (30 °C) is -2.66 ± 0.2 and the “self-splicing fitness (ln)” value (37 °C) was -2.56 ± 0.25.

For CGGCAGCAAUAUUACGUCCC, the “self-splicing fitness (ln)” value is, setting by setting: (30 °C) -0.557 ± 0.23; (37 °C) 0.728 ± 0.37. In the same order, the values of AAACAGCAAUAUUACGAAAC are -2.4 ± 0.24 and -1.51 ± 0.23.

For AACCAGCAAUAUUACGUUAG, the “self-splicing fitness (ln)” value (30 °C) is -3.68 ± 0.11 and the “self-splicing fitness (ln)” value (37 °C) was -2.44 ± 0.11.

Regarding ACUCAGCAAUAUUACGAUAG, the “self-splicing fitness (ln)” value is -4.03 ± 0.24 (30 °C) and -2.21 ± 0.17 (37 °C). For AUAAAGCAAUAUUACGUGAC, the “self-splicing fitness (ln)” value runs as follows: (30 °C) -2.94 ± 0.19; (37 °C) -1.57 ± 0.18.

With AAAUAGCAAUAUUACGCGUA, the “self-splicing fitness (ln)” value is -2.41 ± 0.21 (30 °C) and -1.04 ± 0.13 (37 °C). In the case of AUUGAGCAAUAUUACGCCUG, the “self-splicing fitness (ln)” value (30 °C) was -2.27 ± 0.33. Turning to GGAGAGCAAUAUUACGGAUA, the “self-splicing fitness (ln)” value by setting is: (30 °C) -4.36 ± 0.46; (37 °C) -2.05 ± 0.24. On to AUCUAGCAAUAUUACGAUCC, for which the “self-splicing fitness (ln)” value reads like this: (30 °C) -1.97 ± 0.18; (37 °C) -0.573 ± 0.26. In the same order, the values of CGCAAGCAAUAUUACGGAAG are -1.03 ± 0.097 and -1.44 ± 0.1.

Consider CUGAAGCAAUAUUACGUAUC, for which the “self-splicing fitness (ln)” value is -3.82 ± 0.23 (30 °C) and -1.78 ± 0.23 (37 °C).

As for GCAGAGCAAUAUUACGAGCG, the “self-splicing fitness (ln)” value is, setting by setting: (30 °C) -2.33 ± 0.29; (37 °C) -1.41 ± 0.23. In the same order, the values of CCUCAGCAAUAUUACGUUGC are -3.32 ± 0.28 and -2.52 ± 0.32. For UGUUAGCAAUAUUACGGUGC, the “self-splicing fitness (ln)” value was -3.76 ± 0.43 (30 °C) and -2.88 ± 0.32 (37 °C). In the case of UGGCAGCAAUAUUACGCCCG, the “self-splicing fitness (ln)” value was -0.568 ± 0.14 (30 °C) and -0.317 ± 0.21 (37 °C).

As for UCCAAGCAAUAUUACGUACG, the “self-splicing fitness (ln)” value reads like this: (30 °C) -3.53 ± 0.19; (37 °C) -1.76 ± 0.16. In the case of AUUCAGCAAUAUUACGACCG, the “self-splicing fitness (ln)” value runs as follows: (30 °C) 0.174 ± 0.18; (37 °C) -0.187 ± 0.27. On the same counts, the results for CGGAAGCAAUAUUACGGCCC are 0.0304 ± 0.18 and 0.0512 ± 0.23. On the same counts, the results for GUGAAGCAAUAUUACGGGUA are -0.994 ± 0.068 and -1.23 ± 0.1.

With CCCAAGCAAUAUUACGAUGU, the “self-splicing fitness (ln)” value runs as follows: (30 °C) -3.53 ± 0.18; (37 °C) -2.04 ± 0.15.

In the case of AUAAAGCAAUAUUACGGUGA, the “self-splicing fitness (ln)” value is, setting by setting: (30 °C) -0.436 ± 0.09; (37 °C) -0.422 ± 0.11. In the case of CGGCAGCAAUAUUACGUAUC, the “self-splicing fitness (ln)” value runs as follows: (30 °C) -3.9 ± 0.33; (37 °C) -2.86 ± 0.27. On the same counts, the results for GAGAAGCAAUAUUACGUAAU are -1.88 ± 0.1 and -0.98 ± 0.11.

For GCCGAGCAAUAUUACGCUAG, the “self-splicing fitness (ln)” value is -2.67 ± 0.17 (30 °C) and -3.17 ± 0.29 (37 °C). On to GCCGAGCAAUAUUACGUCGC, for which the “self-splicing fitness (ln)” value is, setting by setting: (30 °C) -4.48 ± 0.47; (37 °C) -1.88 ± 0.25. As to GCUGAGCAAUAUUACGGGAU, the “self-splicing fitness (ln)” value runs as follows: (30 °C) -2.39 ± 0.14; (37 °C) -1.34 ± 0.13.

AGGUAGCAAUAUUACGCGUG: the “self-splicing fitness (ln)” value runs as follows: (30 °C) -1.485 ± 0.013; (37 °C) -0.784 ± 0.032. On the same counts, the results for CUUUAGCAAUAUUACGACAU are -3.762 ± 0.032 and -2.81 ± 0.043. On the same counts, the results for AACGAGCAAUAUUACGUAGG are -3.93 ± 0.21 and -2.49 ± 0.18.

Turning to GUUCAGCAAUAUUACGACAA, the “self-splicing fitness (ln)” value is -1.06 ± 0.18 (30 °C) and -0.319 ± 0.18 (37 °C). On to GAGUAGCAAUAUUACGUGAU, for which the “self-splicing fitness (ln)” value by setting is: (30 °C) -3.6 ± 0.33; (37 °C) -2.12 ± 0.34. In the same order, the values of GUCAAGCAAUAUUACGUCGU are -1.68 ± 0.066 and -0.826 ± 0.078.

For the sequence UGUAAGCAAUAUUACGUUUC, the “self-splicing fitness (ln)” value (30 °C) is -3.11 ± 0.22 and the “self-splicing fitness (ln)” value (37 °C) is -3.02 ± 0.43. Turning to ACGUAGCAAUAUUACGCUCG, the “self-splicing fitness (ln)” value is -2.16 ± 0.12 (30 °C) and -0.0752 ± 0.15 (37 °C). On the same counts, the results for AGUCAGCAAUAUUACGUUCA are -1.5 ± 0.099 and -0.803 ± 0.081. With CUUAAGCAAUAUUACGCACU, the “self-splicing fitness (ln)” value reads like this: (30 °C) -2.93 ± 0.17; (37 °C) -1.53 ± 0.17. In the same order, the values of CGCGAGCAAUAUUACGCAUG are -2.48 ± 0.2 and -2.14 ± 0.16. On to AUAUAGCAAUAUUACGUAUU, for which the “self-splicing fitness (ln)” value is, setting by setting: (30 °C) -2.94 ± 0.22; (37 °C) -1.63 ± 0.21.

For AUGCAGCAAUAUUACGUUCG, the “self-splicing fitness (ln)” value is -0.728 ± 0.059 (30 °C) and -0.798 ± 0.089 (37 °C). Regarding CUGGAGCAAUAUUACGAGAG, the “self-splicing fitness (ln)” value was -3.54 ± 0.36 (30 °C) and -3.53 ± 0.33 (37 °C). On to UGAAAGCAAUAUUACGACUC, for which the “self-splicing fitness (ln)” value runs as follows: (30 °C) -2.17 ± 0.2; (37 °C) -1.88 ± 0.25. Regarding UGAGAGCAAUAUUACGAAAC, under “37 °C”, the “self-splicing fitness (ln)” value is -1.1 ± 0.37.

Consider GGGCAGCAAUAUUACGUCGC, for which the “self-splicing fitness (ln)” value (30 °C) was -1.69 ± 0.1 and the “self-splicing fitness (ln)” value (37 °C) is -1.54 ± 0.14.

Regarding ACGAAGCAAUAUUACGGGGU, the “self-splicing fitness (ln)” value (30 °C) is -3.47 ± 0.15 and the “self-splicing fitness (ln)” value (37 °C) was -2.33 ± 0.17. On the same counts, the results for CCUUAGCAAUAUUACGCUAG are -3.32 ± 0.29 and -2.04 ± 0.38. In the same order, the values of UGUAAGCAAUAUUACGCGCC are -1.18 ± 0.1 and -0.53 ± 0.13. In the same order, the values of CUAUAGCAAUAUUACGUGCG are -1.19 ± 0.1 and -0.322 ± 0.13. UAGAAGCAAUAUUACGUUGU: the “self-splicing fitness (ln)” value by setting is: (30 °C) -4.33 ± 0.18; (37 °C) -2.47 ± 0.14. With ACAUAGCAAUAUUACGCAUA, the “self-splicing fitness (ln)” value reads like this: (30 °C) -3.01 ± 0.17; (37 °C) -1.85 ± 0.12. AAGCAGCAAUAUUACGUGCU: the “self-splicing fitness (ln)” value runs as follows: (30 °C) -3.6 ± 0.15; (37 °C) -1.85 ± 0.11. In the same order, the values of GCUAAGCAAUAUUACGGUGU are -2.48 ± 0.087 and -1.6 ± 0.1. Consider AGAAAGCAAUAUUACGGAAA, for which the “self-splicing fitness (ln)” value is, setting by setting: (30 °C) -1.63 ± 0.14; (37 °C) -1.33 ± 0.15.

As for AAAUAGCAAUAUUACGACGU, the “self-splicing fitness (ln)” value is 0.194 ± 0.083 (30 °C) and -0.646 ± 0.074 (37 °C).

On to CAAUAGCAAUAUUACGCGAC, for which the “self-splicing fitness (ln)” value by setting is: (30 °C) -2.2 ± 0.17; (37 °C) -2.54 ± 0.38.

UGGAAGCAAUAUUACGCUGA: the “self-splicing fitness (ln)” value (37 °C) is -0.713 ± 0.4. Take GCGGAGCAAUAUUACGGGGU: for the setting “30 °C”, the “self-splicing fitness (ln)” value is -1.55 ± 0.23. CUCGAGCAAUAUUACGCGAU: the “self-splicing fitness (ln)” value reads like this: (30 °C) -3.25 ± 0.17; (37 °C) -2.96 ± 0.23. In the same order, the values of UUCUAGCAAUAUUACGAGUU are -2.55 ± 0.15 and -1.92 ± 0.13. AGUGAGCAAUAUUACGAAUA: the “self-splicing fitness (ln)” value (37 °C) was -1.17 ± 0.22. In the case of CACAAGCAAUAUUACGUUGU, the “self-splicing fitness (ln)” value runs as follows: (30 °C) -3.81 ± 0.16; (37 °C) -2.39 ± 0.13. On the same counts, the results for UACUAGCAAUAUUACGCACC are -1.86 ± 0.2 and -1.22 ± 0.26. On the same counts, the results for AACUAGCAAUAUUACGAUUC are -1.81 ± 0.094 and -0.882 ± 0.11. In the same order, the values of CUAGAGCAAUAUUACGAAAC are -3.57 ± 0.31 and -2.41 ± 0.39.

Consider UUUGAGCAAUAUUACGACCG, for which the “self-splicing fitness (ln)” value (37 °C) is -1.19 ± 0.4. UGGAAGCAAUAUUACGGAUA: the “self-splicing fitness (ln)” value (30 °C) is -0.862 ± 0.084 and the “self-splicing fitness (ln)” value (37 °C) was -1.04 ± 0.088. In the case of AAAUAGCAAUAUUACGCAGA, the “self-splicing fitness (ln)” value (30 °C) was -2.07 ± 0.26. As to AAUCAGCAAUAUUACGGUGU, the “self-splicing fitness (ln)” value is, setting by setting: (30 °C) 0.0362 ± 0.059; (37 °C) 0.393 ± 0.072.

For GUGAAGCAAUAUUACGGGGC, the “self-splicing fitness (ln)” value is, setting by setting: (30 °C) -2.91 ± 0.23; (37 °C) -3.35 ± 0.35.

As to GGCUAGCAAUAUUACGGAGU, the “self-splicing fitness (ln)” value runs as follows: (30 °C) -2.86 ± 0.1; (37 °C) -2.02 ± 0.13. In the case of UAGUAGCAAUAUUACGACAA, the “self-splicing fitness (ln)” value runs as follows: (30 °C) -0.402 ± 0.15; (37 °C) -0.175 ± 0.14. For CAAGAGCAAUAUUACGAAAA, where the note is “37 °C”, the “self-splicing fitness (ln)” value is -2.78 ± 0.38. With CUUGAGCAAUAUUACGCUGG, the “self-splicing fitness (ln)” value is -3.81 ± 0.25 (30 °C) and -2.17 ± 0.17 (37 °C). As for AGACAGCAAUAUUACGGAAA, the “self-splicing fitness (ln)” value was -3.32 ± 0.26 (30 °C) and -1.48 ± 0.13 (37 °C). For the sequence UGUCAGCAAUAUUACGUCAG, the “self-splicing fitness (ln)” value by setting is: (30 °C) -0.398 ± 0.09; (37 °C) -0.464 ± 0.098. Take UUUCAGCAAUAUUACGAUCG: the “self-splicing fitness (ln)” value is -0.997 ± 0.099 (30 °C) and -0.152 ± 0.14 (37 °C). Take GCUGAGCAAUAUUACGCGAU: the “self-splicing fitness (ln)” value by setting is: (30 °C) -2.78 ± 0.17; (37 °C) -2.59 ± 0.25.
